In the test the target is T1, tau (rat, UniProt P19332-5 2-432, limits assumed).
T1 construct: Cytoskeletal protein used as a specificity control in the cypin immunoprecipitates
The test can be described thus: immunoprecipitation from rat brain extract with polyclonal anti-cypin antibody. On the procedure:
Cypin contains a region of homology to CRMP that binds directly to tubulin heterodimers (Akum et al., Nature Neurosci. 7:145 (2004)). To establish that cypin binds to tubulin, affinity chromatography was performed using a GST fusion of rat cypin immobilized on glutathione beads incubated with rat brain extract. The eluate was then assayed for the presence of tubulin. […] To assess whether this interaction occurs in vivo, rat brain extract was subjected to immunoprecipitation with preimmune serum or polyclonal antibody raised against cypin. Tubulin was found in the cypin immunoprecipitates (Id.). Very little tubulin was present when preimmune serum is used, representing nonspecific binding (Id.). Furthermore, no tau was detected in the cypin immunoprecipitates, supporting the idea that cypin binds specifically to tubulin and not all cytoskeletal proteins (Id.). In addition, cypin was found in tubulin immunoprecipitates.

T1 sequence (P19332 other isoform, or with tags, fused parts or gaps limits assumed): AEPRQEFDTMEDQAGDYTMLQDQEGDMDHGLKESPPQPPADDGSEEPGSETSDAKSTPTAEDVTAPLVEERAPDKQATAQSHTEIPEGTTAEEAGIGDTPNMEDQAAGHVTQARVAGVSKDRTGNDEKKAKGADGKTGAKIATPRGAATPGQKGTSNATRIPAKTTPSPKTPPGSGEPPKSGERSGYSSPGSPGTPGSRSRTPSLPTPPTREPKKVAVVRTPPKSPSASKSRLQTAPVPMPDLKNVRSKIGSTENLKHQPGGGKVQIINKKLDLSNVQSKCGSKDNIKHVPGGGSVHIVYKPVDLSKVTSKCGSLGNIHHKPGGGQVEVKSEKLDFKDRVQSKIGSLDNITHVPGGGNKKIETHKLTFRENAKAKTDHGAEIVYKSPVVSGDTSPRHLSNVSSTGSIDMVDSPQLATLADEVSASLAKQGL

B1: cypin in rat brain extract (enzyme)
chain: MCAARTPQLALIFRGTFVHSTWTCPMEVLRDHLLGVSDSGKIVFLEESSQQEKLAKEWCFKPCEIRELSHHEFFMPGLVDTHIHAPQYAFAGSNVDLPLLDWLNKYTFPTEKRFQSTDVAEEVYTRVVRRTLKNGTTTACYFGTIHTDSSLILAEITDKFGQRAFVGKVCMDLNNTVPEYKETTEESVKETERFVSEMLQKNYSRVKPIVTPRFSLSCTETLMSELGNIAKTHDLYIQSHISENREEIEAVKSLYPGYKNYTDVYDKNNLLTNKTVMAHGCYLSEEELNVFSERGASIAHCPNSNLSLSSGLLNVLDVLKHKVKIGLGTDVAGGYSYSMLDAIRRAVMVSNVLLINKVNEKSLTLKEVFRLATLGGSQALGLDREIGNFEVGKDFDALLINPRASDSPIDLFCGDFVGDISEAVIQKFLYLGDDRNIEEVYVGGKQVVPFSSSV
notes: Endogenous cypin immunoprecipitated from rat brain extract with a polyclonal antibody raised against cypin; also called endogenous cypin
Turning to B1, the binding result is on record as “no binding”.

For the origin of these results see patent US20050214822A1 (RUTGERS THE STATE UNIVERSITY OF NEW JERSEY, published 2005).
